Results from the DeepSol protein solubility set.

assay: soluble on expression in E. coli; label from the status in PepcDB or PDB records

| Sequence | soluble on expression in E. coli |
| --- | --- |
| MGSDKIHHHHHHMKRLAFVISSLGAGGAEKVLSLMSHYLAQKGISLTLISLGDSKSFYPLPAQAKIIALGECRSSKGVIDSLFQNLRRIQKLRQALRAARPDLILSFMTETNILSIIAAKSLGIPVIASEHTNYLWQPSRLWNRLRHLLYPLASATTLLTQRDKENHYGFLPQAKILPNPFDFPPLSPTPKEKIILGVGRLIKDKGFDRLIRAFSRISIGDYQLLIAGEGEERVRLEELIQSLGMEEKIHLLGSQKEIYPLYERASIFVLSSSMEGLSNALIEAMSMGCAVISFDCPYGPSEVITPQENGLLVPLHDEVALQEAMERLIQEEPLRQKLSQNAPKVRERFAIDRVMPQWEELMRSILDSTPSCSKES | not soluble |
| MKLDLIQSMLYNNPKPQDTKEGLSDQDFSIYMDAHTVPFSKYPSYMPAGVLGICTEGNAEIQVGLRKYVICANDILIFMPGFLVSFIKSSPTFTIDYCTFSNVLFYDVINGSIKRFPTGFHTYTQTHCVYSLSQEKAEQFSIYFRLLYNRATSPTYLFTKESITNLLKLPFLELYADYYSTVKEHKVTTLHKEEIGYFFLDLLLKHYKENKEVAFYAEKLHVSSKYLTEALTLVSGKSPKEWIIHYTLQEIYALLENPSISIQEIVQRTRFANLATLRRFFKRHTGTSLLQYRKQDLYKNNQ | not soluble |
| MAIPFFEEEHAPKSEPSGDQVDSPMAFSIDPGHDQVDFEGPPSAAEELPPPGATSEPVAPPSAEEQLLAWKFLAITMCKVLKQFYQQHKSSGKSSKLKATVQIQPQAQ | not soluble |
| MGSDKIHHHHHHMLSNNCSILLIDDDADVLDAYTQLLEQAGYHVSACNNPFDAREQVPKDWPGIVLSDVCMPGCSGIDLMTLFHQDDDLLPILLITGHGDVPMAVEAVKKGAWDFLQKPIDPGKLLTLVDAALRQRQSVIARRQYCQQKLQVELIGRSQWTVRYRQRLQQLAETDIAVWLYGEPGTGRMTGARYLHQLGRHAEGPFIACELTPANAHTLNELIAQAQGGTLVLSHPEHLTHEQQHQLVQLQSHEKRPFRLIGIGSASLVELAASSQIVAELYYCFAMTQIGCQPLSKRPDDIEPLFHHYLQKTCQRLNHPVPEVDAGLLKGMMRRVWPNNVRELANAAELFAVGVLPLAETVNPLMHIGEPTPLDQRVEDVERQIITEALNIHQGRINEVAEYLLIPRKKLYLRMKKYGLNKEHYKGV | not soluble |
| MSLIPIRCHAVSGVALSTVQGETRLLMMKRVKGGFWCHVAGTVEAGETGWQTIVREFREETGIVVHELYNGQYLEQFYEHATNTVCLVPVFVVYCPPTQAVTLNHEHTEYRWSTLAEAKALAGFPGQQALYDHLWHYFVENSPSALMRVAMTEGHHHHHH | not soluble |
| MSLSTVTMILGQSGTGKSTSLRNLDPSQTLLIQAIKKPLPFKSGNWKPANKENPAGSIFVCDSAATIVGAMKRTKRPVIVIDDFQYVMANEFMRRSAEKGFDKFTEIGRNAWDILVEAARLPDEVRVYVLSHVETTDDGRTKIKTIGRMLDEKITLEGMVSIVLKTVVQDGQHFFATRNNGSDTVKTPMGMFDADLIENDLAAVDTAIYQYYGLTEAEGHHHHHH | not soluble |
| MSLSHLVVFDLDGTLTRQRGGFELLHTLYGTTPEAETLMNRFEAGEITFTEWCQGAVDMWRANDITRSDITRATRALKPKAGAVDLLAHLQQTDIRFGILSAGVANLAARFEPYEPAFVRGNWLQFEDRRVSAIDIGVGPNEKGELLRKIRSKQNPVSITYIGDSHTDTEAFIEADTAVLFDPDERVPETAIDAADTIIESADIAEVQNCIPTEGHHHHHH | not soluble |
| MARKVIDVRIVNAATAEQESFIKELSMELIHDVFPLYFSELDIQRLKKKGVLSLNNHYYQGTLKEAFQIMACLQMIHIILTKPSPHSDLSDQAIFEKNSKMLNDFGIYFPFAFSDFQKKTNKAFFGQRRLILEHHHHHH | not soluble |
| MGSDKIHHHHHHMTTSEAPQCPYHLKQSLTRRPTAGARPSAAIEVDGNGIYRIHAFQAARDILRSNSVRQAGFMSESARGVRGLGNPPVLFEEGEKHHEMRRSTARYFTPTQVAEYQPMIAALADDLIAELIRRGEMNLDDLSLRLAVNVAARVVGLTSSRVPGLERRVISFVESGGDSEPSSTQPRKSRLESLRQQAKMALFYFLDVKPAIAARRQQRQDDLISHLLDREYNDLEILTECLTYGTAGMVTTREFISVAAWHLLRNPGLRAEYVHGTEPERHAILHEILRLEPVVTMLYRRAEGELTVAGQTIPAGSLLALHLQEANTDPAVAGADAEQLCPGRTLPRGVAPQVLAFGDGHHRCPGAFLAIKESDVFLRRLLVWQDLEIVSEPEVNSNEVVKGYELRGFRVRLGRAARP | not soluble |
| MGSDKIHHHHHHMASDIHTLSDSLLWKRFLEGDSSAYSQIYNQTVQELFRYGLLYTSDRELVKDCIHDVFVKIYTNRAKLTPTDNIIAYLMVALKNTLFNALKKTSDSFSLDEADEKEDQSEEHFSTPETIYINKEQEKNTHMKVHAMMSSLTTRQREIVYYRYIKDMSIDEISKITDMNYQSVSNSIQRALGRVRNLFKRE | not soluble |
| MSLSEDLFDVEVRNFEEGDKVTGTVTSVEDKQVYVGIPGSKLDGVVPISELSNIHVETASDVVSVGDTLDLIVTKVEDDILVLSKRKVDAEKASDDIKAKFESGEVFEAVVSDVVKGGLVVDLGVRAFVPASLVEDHFVEDFADYKGTTLTFKVVEFEPENNRVILSHRAVVETEKASQKQALLSEIKEGDVIEGTVQRLANFGAFVDIGGVDGLVHISQISYKHIATPQEALEEGQKVTVKVIGIDPENERISLSIKATLPGPWDGIAEKAPVGSVLEGKVVRLVTFGAFVEIFPGVEGLVHISQISHEHIGTPQEVLSEGQTVEVKVLEVNEADKRLSLSIKELKDAPVEEADYELPEENTGFQMSDLIGDKLKGLQNDDKEGHHHHHH | soluble |
| MRKMKTERAKEILVQLLKIPSPSGREDRVALYIMEFLHKLNYDVHIESDGEIIDLVVNPGAELFFEVHMDTIDPRAEPFVRGNIVYGTGASDIKGGIASILLMLEQLRKEGKDLNVGIVFVSDEEKGGRGSALFMERYRPKMAVVLEPTDLEVHIAHAGNIEAYFEVDGKEAHGACPESGINAIEQTFEMLQKLKDLEPFKAKGKYFDPHIGIQELICENPYYLIPALCKGRLEARLLPDQEVEDILDLIDPILDEYTVKYEYTEIWDGYELSEDEEIVQIAKSAMDMVGLDEFGAMRSWTDAINFTYNGTKTIVFGPGNLDISHTKQERIDVRDVVKASEFLLAVNEIFGNKS | soluble |
| MAHHHHHHMSTNRVATVVAGLDGANPVKRERHPAWYPPLKLDGNGLKVMNSLTETLEDFAPRDGRVVRWYTCGPTVYDLSHMGHARAYLTFDIIRRIMEDYFGYSVIYQMNITDIDDKIIKRARVNKLLVDFKEEELRHSDVAKLMAFTAEAVAAAESGLAKRKAALVEPIAKGTNSRAKADREEKLLEVQLKESQLVETKVKIAAAKDDFAALFAAASGVNGDLLDERSGHSVSDQQIFEDHARKYERAFFEDMQRLGIREPDIVTRVTEYVPQVVEFVQKIIDNGFAYAGETSVFFDTEAYIRAGHDYPKLKPGGDRNTTEDEMAEGEGVLSKGIEGEKRSPNDFALWKFSKPGEPRWPSPWGEGRPGWHIECSVMASDILGENMDIHSGGWDLKFPHHDNECAQSEACNLHSQWVNYFLHCGHLHIKGLKMSKSLKNFITIRQALDELGVTARTMRLLFLANPWNKPMNFSDQSLDEAKEKERVLRAFFGSVDIVLRADNWKATQGVNKHDRELLSKWVEAEAAVHAALQDNFDTVVALQQLMSLVAATNQYLLSGERPSATLVRKVGCYVTKMFRIFGVVEGSDDVGLQKQGSDDGEARFIEVVNTLVRFRDEVRNAAKDHKVVAGFLPLCDKVRDEWLVDAGVRLEDNPAGPTTWKSDEPALLQKELAERRAQQEGDRQRRLANQAETKRKLVEKWRQFTYPPSEYFRRQDEQRVEKKYTAYDDVTGLPTMTAAGEEVSEKEAKKLSKEQAKYAKSYDEFIGKGGVSWIQEQEAELASMVAELEGSK | not soluble |
| SSLIQAGQQTRFTTDASAAVEPADSARETWSRGVLVAWDMTLGDVVKELRRYRSGYLGIAPEVAGLRVFGSFPLRDTDDTLTMLASALPIRIQRTLPWWVSIEARTDADPHR | not soluble |
| MAHHHHHHMLRLCLALRSASVQRKPHLFRIDLTSKHTPGHLYLADRAVKSTAADPCFVCLDNAMTCQTVDSNAAVVLRSCMTKGRELFQYGRMRFQGMSAALVFRHNHLVFQGIGDASVQALEMSLQHKDVFALLGGISPHENIPEWARAVEKAIAEGDVEYVAEEMLLQLRCPTEGCTSVVAKISKFSAGLPEPPNYSHAM | not soluble |
| MGFADFFKNFKINKLRTAPSKEEQPSHWVKCPKCYALMYHKEVFSKYSVCLKCHYHFRMKAAERIEFLCDVGSFEEFDKHLRPNDPLNFVDKESYKQRIKKYEKRTNRPSSVISGEAKINRMPLQIVVFDFSFMGGSLGSVEGEKIVRAINRAVAKREALLIVSASGGARMQESTYSLMQMAKTSAALNRLSEAKLPFISLLSDPTYGGVSASFAFLGDLIIAEPGAMIGFAGPRVIKQTIGADLPEGFQTAEFLLEHGLIDMIVHRKDLKKTLSDLIAMMTHKTSKIFLEHHHHHH | soluble |
| MPELEVKGKKLRLDEDGFLQDWEEWDEEVAEALAKDTRFSPQPIELTEEHWKIIRYLRDYFIKYGVAPPVRMLVKHCKKEVRPDCNLQYIYKLFPQGPAKDACRIAGLPKPTGCV | soluble |
| MYRMDKYTIGLIRVITLEDKEILNLHGRIIESAFPELKVVSRCIEDQPKGIYNEETEREAEPKIIRLAKEFEREGVDAIIISCAADPAVEKVRKLLSIPVIGAGSSVSALALAYGRRVGVLNLTEETPKVIRSILGNNLIAEDHPSGVSNTLDLLTDWGRREVINAAKRLKEKGVEVIALGCTGMSTIGIAPVLEEEVGIPVIDPVIASGAVALHALKRREVKRFEGR | soluble |
| MIIKVIPVGPIAVNCSVVADEKSGEAIIIDPGAEAEKILEAVKDFKVVGIVATHGHIDHVGQVGKLKELFDVPFYMNPLDKFLINDEIWSGFASYIGAVPCPEPDVEISEGDVIRVGDVEFKVLHTPGHTPGLCCLYEEKRRVLIAGDLLFKGSVGRWDLPGGNLVELKKSVKRVLTELPQDTLVICGHYDETTIGQERAFNPFAGELLNG | soluble |
| MGSDKIHHHHHHMLTPIPQIQHLFATNRRSARWLQLAFLLMALYYAPFSHAACTTPPSNTVLGPYGSSVVGVNGTPQVVASGSGFRCTGSVLSLASTNTITATIQSDSNPSGTTMRMRRGTTTDYVPYSLCMDSGCGTLYNINSTYTWSRTTFLDILGLFNSTDGTMPIYIRTSIGSNVSAGTYTDTVTIKWDYRLCALGILGLCSYDEGSTTSTLNITMTITNDCQITSAPNISFGTAAFPANFAAVNNNLGVRCTLLGAYTVKLVSTHPDDANWRRMTATVGSTPYYLQYQLYRTGNIAWTETNDYSGAGTGITQNIPYTARINASQASKPEGTYKDTVTINVTIN | not soluble |
| SQTRDLQGGKAFGLLKAQQEERLDEINKQFLDDPKYSSDEDLPSKLEGFKEKYMEFDLNGNGDIDIMSLKRMLEKLGVPKTHLELKKLIGEVSSGSGETFSYPDFLRMMLGKRSAILKMILMYEEKAREK | not soluble |
| MSLLGGPGIELFRRLVEEYEREHDVPMADIAAALAVQCRGGEAFLMAPDPPLSRRNRDQRRDRPQRPKRRPDLTTYRVAVGKRHKIGPGAIVGAIANEGGLHRSDFGQIRIGPDFSLVELPAKLPRATLKKLAQTRISGVLIDLRPYRPPDAARRHNGGKPRRKHVGEGHHHHHH | soluble |
